First the molecules themselves.
B1: Cell division cycle 7-related protein kinase (Homo sapiens), O00311 (parent)
chain: MEASLGIQMDEPMAFSPQRDRFQAEGSLKKNEQNFKLAGVKKDIEKLYEAVPQLSNVFKIEDKIGEGTFSSVYLATAQLQVGPEEKIALKHLIPTSHPIRIAAELQCLTVAGGQDNVMGVKYCFRKNDHVVIAMPYLEHESFLDILNSLSFQEVREYMLNLFKALKRIHQFGIVHRDVKPSNFLYNRRLKKYALVDFGLAQGTHDTKIELLKFVQSEAQQERCSQNKSHIITGNKIPLSGPVPKELDQQSTTKASVKRPYTNAQIQIKQGKDGKEGSVGLSVQRSVFGERNFNIHSSISHESPAVKLMKQSKTVDVLSRKLATKKKAISTKVMNSAVMRKTASSCPASLTCDCYATDKVCSICLSRRQQVAPRAGTPGFRAPEVLTKCPNQTTAIDMWSAGVIFLSLLSGRYPFYKASDDLTALAQIMTIRGSRETIQAAKTFGKSILCSKEVPAQDLRKLCERLRGMDSSTPKLTSDIQGHASHQPAISEKTDHKASCLVQTPPGQYSGNSFKKGDSNSCEHCFDEYNTNLEGWNEVPDEAYDLLDKLLDLNPASRITAEEALLHPFFKDMSL
partner: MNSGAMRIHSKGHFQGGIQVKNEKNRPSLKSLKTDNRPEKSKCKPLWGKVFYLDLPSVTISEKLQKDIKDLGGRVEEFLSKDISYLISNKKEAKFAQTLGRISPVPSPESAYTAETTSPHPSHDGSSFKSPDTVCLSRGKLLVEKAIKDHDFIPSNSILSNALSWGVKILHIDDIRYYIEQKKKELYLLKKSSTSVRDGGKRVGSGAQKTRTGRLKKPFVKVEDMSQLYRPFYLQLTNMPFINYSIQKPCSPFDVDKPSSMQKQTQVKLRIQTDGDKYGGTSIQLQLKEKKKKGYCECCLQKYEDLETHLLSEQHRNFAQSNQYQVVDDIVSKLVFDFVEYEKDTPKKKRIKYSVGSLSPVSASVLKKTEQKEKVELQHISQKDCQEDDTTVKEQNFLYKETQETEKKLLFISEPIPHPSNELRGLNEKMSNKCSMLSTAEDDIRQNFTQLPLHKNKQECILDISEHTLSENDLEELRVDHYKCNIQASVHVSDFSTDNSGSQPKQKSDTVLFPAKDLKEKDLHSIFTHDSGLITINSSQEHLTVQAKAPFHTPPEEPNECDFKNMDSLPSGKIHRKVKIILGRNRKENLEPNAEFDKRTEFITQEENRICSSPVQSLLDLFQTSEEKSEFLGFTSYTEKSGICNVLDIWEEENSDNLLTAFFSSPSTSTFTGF
B2: Transmembrane protein 79 (Homo sapiens), Q9BSE2 (parent)
chain: MTEQETLALLEVKRSDSPEKSSPQALVPNGRQPEGEGGAESPGAESLRVGSSAGSPTAIEGAEDGLDSTVSEAATLPWGTGPQPSAPFPDPPGWRDIEPEPPESEPLTKLEELPEDDANLLPEKAARAFVPIDLQCIERQPQEDLIVRCEAGEGECRTFMPPRVTHPDPTERKWAEAVVRPPGCSCGGCGSCGDREWLRAVASVGAALILFPCLLYGAYAFLPFDVPRLPTMSSRLIYTLRCGVFATFPIVLGILVYGLSLLCFSALRPFGEPRREVEIHRRYVAQSVQLFILYFFNLAVLSTYLPQDTLKLLPLLTGLFAVSRLIYWLTFAVGRSFRGFGYGLTFLPLLSMLMWNLYYMFVVEPERMLTATESRLDYPDHARSASDYRPRPWG
partner: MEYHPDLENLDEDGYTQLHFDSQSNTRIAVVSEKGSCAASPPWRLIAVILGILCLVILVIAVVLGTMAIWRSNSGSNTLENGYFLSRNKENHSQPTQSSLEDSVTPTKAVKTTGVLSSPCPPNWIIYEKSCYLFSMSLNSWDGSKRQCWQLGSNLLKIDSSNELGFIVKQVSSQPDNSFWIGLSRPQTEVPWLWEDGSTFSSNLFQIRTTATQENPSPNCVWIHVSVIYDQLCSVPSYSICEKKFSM
B3: Heterogeneous nuclear ribonucleoprotein R (Homo sapiens), O43390 (parent)
chain: MANQVNGNAVQLKEEEEPMDTSSVTHTEHYKTLIEAGLPQKVAERLDEIFQTGLVAYVDLDERAIDALREFNEEGALSVLQQFKESDLSHVQNKSAFLCGVMKTYRQREKQGSKVQESTKGPDEAKIKALLERTGYTLDVTTGQRKYGGPPPDSVYSGVQPGIGTEVFVGKIPRDLYEDELVPLFEKAGPIWDLRLMMDPLSGQNRGYAFITFCGKEAAQEAVKLCDSYEIRPGKHLGVCISVANNRLFVGSIPKNKTKENILEEFSKVTEGLVDVILYHQPDDKKKNRGFCFLEYEDHKSAAQARRRLMSGKVKVWGNVVTVEWADPVEEPDPEVMAKVKVLFVRNLATTVTEEILEKSFSEFGKLERVKKLKDYAFVHFEDRGAAVKAMDEMNGKEIEGEEIEIVLAKPPDKKRKERQAARQASRSTAYEDYYYHPPPRMPPPIRGRGRGGGRGGYGYPPDYYGYEDYYDDYYGYDYHDYRGGYEDPYYGYDDGYAVRGRGGGRGGRGAPPPPRGRGAPPPRGRAGYSQRGAPLGPPRGSRGGRGGPAQQQRGRGSRGSRGNRGGNVGGKRKADGYNQPDSKRRQTNNQQNWGSQPIAQQPLQQGGDYSGNYGYNNDNQEFYQDTYGQQWK
B4: Lymphokine-activated killer T-cell-originated protein kinase (Homo sapiens), Q96KB5 (parent)
chain: MEGISNFKTPSKLSEKKKSVLCSTPTINIPASPFMQKLGFGTGVNVYLMKRSPRGLSHSPWAVKKINPICNDHYRSVYQKRLMDEAKILKSLHHPNIVGYRAFTEANDGSLCLAMEYGGEKSLNDLIEERYKASQDPFPAAIILKVALNMARGLKYLHQEKKLLHGDIKSSNVVIKGDFETIKICDVGVSLPLDENMTVTDPEACYIGTEPWKPKEAVEENGVITDKADIFAFGLTLWEMMTLSIPHINLSNDDDDEDKTFDESDFDDEAYYAALGTRPPINMEELDESYQKVIELFSVCTNEDPKDRPSAAHIVEALETDV
partner: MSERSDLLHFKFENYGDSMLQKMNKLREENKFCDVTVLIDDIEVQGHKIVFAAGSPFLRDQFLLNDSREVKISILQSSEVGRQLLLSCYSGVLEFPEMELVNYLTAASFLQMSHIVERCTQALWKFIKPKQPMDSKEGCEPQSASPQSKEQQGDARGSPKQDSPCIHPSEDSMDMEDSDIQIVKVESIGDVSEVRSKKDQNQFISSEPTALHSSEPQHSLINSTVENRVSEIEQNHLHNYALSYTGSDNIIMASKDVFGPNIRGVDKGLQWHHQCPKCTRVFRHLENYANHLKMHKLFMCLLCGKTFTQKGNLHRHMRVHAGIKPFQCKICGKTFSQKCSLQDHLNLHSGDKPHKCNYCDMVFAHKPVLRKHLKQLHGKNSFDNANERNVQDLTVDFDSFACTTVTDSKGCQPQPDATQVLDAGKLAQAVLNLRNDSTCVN

One assay covers variants of B1. The following applies: with dbf4a_human DBF4, Q9UBU7.
For Q106R, the “effect of a mutation on the interaction” value is “with no effect”. In the case of K416T, the “effect of a mutation on the interaction” value is given as “with no effect”. Still for that read-out and setting: as for Q456H, the entry is “with no effect”.

In another assay the parent is B2. The following applies: with clc7a_human CLEC7A.
With MTEQETLALLEVKRSDSPEKSSPQALVPNGRQPEGEGGAESPGAESLRVGSSAGSPTAIEGAEDGLDSTVSEAATLPWGTGPQPSAPFPDPPGWRDIEPEPPESEPLTKLEELPEDDANLLPEKAARAFVPIDLQCIERQPQEDLIVRCEAGEGECRTFMPPRVTHPDPTERKWAEAVVRPPGCSCGGCGSCGDREWLRAVASVGAALILFPCLLYGAYAFLPFDVPRLPTMSSRLIYTLRCGVFATFPIVLGILVYGLSLLCFSALRPFGEPRREVEIHRRYVAQSVQLFILYFFNLAVLSTYLPQDTLKLLPLLTGLFAISRLIYWLTFAVGRSFRGFGYGLTFLPLLSMLMWNLYYMFVVEPERMLTATESRLDYPDHARSASDYRPRPWG [V322I], the “effect of a mutation on the interaction” value was “with no effect”.

The variants in another assay derive from B3. The following applies: with anm1_human PRMT1, Q99873.
anm1_human PRMT1, Q99873, sequence (Q99873 whole entry, looked up): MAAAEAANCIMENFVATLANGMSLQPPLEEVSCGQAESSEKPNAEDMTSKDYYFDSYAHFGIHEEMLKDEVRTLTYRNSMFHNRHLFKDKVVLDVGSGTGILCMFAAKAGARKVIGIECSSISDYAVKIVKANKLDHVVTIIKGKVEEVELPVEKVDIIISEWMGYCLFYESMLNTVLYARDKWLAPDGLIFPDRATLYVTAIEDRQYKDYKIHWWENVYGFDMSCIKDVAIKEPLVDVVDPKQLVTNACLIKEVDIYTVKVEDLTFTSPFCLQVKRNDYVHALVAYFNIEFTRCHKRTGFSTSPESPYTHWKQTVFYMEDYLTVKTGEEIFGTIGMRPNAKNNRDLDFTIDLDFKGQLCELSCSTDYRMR
In the case of S530T, the “effect of a mutation on the interaction” value is given as “with no effect”.

The variants in another assay derive from B4. The following applies: with zbt26_human ZBTB26, Q9HCK0.
With MEGISNFKTPSKLSEKKKSVLCSTPTINIPASPFMQKLGFGTGVNVYLMKRSPRGLSHSPWAVKKINPICNDHYRSVYQKRLMDEAKILKSLHHPNIVGYRAFTEANDGSLCLAMEYGGEKSLNDLIEERYKASQDPFPAAIILKVALNMARGLKYLHQEKKLLHGDIKSSNVVIKGDFETIKICDVGVSLPLDENMTVTDPEACYIGTEPWKPKEAVEDNGVITDKADIFAFGLTLWEMMTLSIPHINLSNDDDDEDKTFDESDFDDEAYYAALGTRPPINMEELDESYQKVIELFSVCTNEDPKDRPSAAHIVEALETDV [E220D], the “effect of a mutation on the interaction” value is listed as “with no effect”.

Take MEGISNFKTPSKLSEKKKSVLCSTPTINIPASPFMQKLGFGTGVNVYLMKRSPRGLSHSPWAVKKINPICNDHYRSVYQKRLMDEAMILKSLHHPNIVGYRAFTEANDGSLCLAMEYGGEKSLNDLIEERYKASQDPFPAAIILKVALNMARGLKYLHQEKKLLHGDIKSSNVVIKGDFETIKICDVGVSLPLDENMTVTDPEACYIGTEPWKPKEAVEENGVITDKADIFAFGLTLWEMMTLSIPHINLSNDDDDEDKTFDESDFDDEAYYAALGTRPPINMEELDESYQKVIELFSVCTNEDPKDRPSAAHIVEALETDV [K87M]: the “effect of a mutation on the interaction” value is “with no effect”.

The values are drawn from IntAct's records for PubMed 31515488.
